From patent publication US20200384066A1

Target: angiogenin (UniProt P03950)
Test: phage ELISA; angiogenin coated at 4 ug/mL, negative control phage, anti-g8p antibody and HRP secondary

angiogenin, sequence (P03950 25-147 limits assumed): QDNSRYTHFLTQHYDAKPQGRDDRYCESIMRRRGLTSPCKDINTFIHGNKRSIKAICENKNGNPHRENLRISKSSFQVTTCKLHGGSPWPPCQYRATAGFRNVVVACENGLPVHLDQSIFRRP

Substance wild type phage has an OD value (450 nm) of 0.191 OD.
